Assay results published in paper doi:10.1101/2022.11.10.515958 (bioRxiv, 2022).

Molecular target: T1, GST-Whi7 (S. cerevisiae, UniProt P36167 1-246)
T1 sequence (looked up): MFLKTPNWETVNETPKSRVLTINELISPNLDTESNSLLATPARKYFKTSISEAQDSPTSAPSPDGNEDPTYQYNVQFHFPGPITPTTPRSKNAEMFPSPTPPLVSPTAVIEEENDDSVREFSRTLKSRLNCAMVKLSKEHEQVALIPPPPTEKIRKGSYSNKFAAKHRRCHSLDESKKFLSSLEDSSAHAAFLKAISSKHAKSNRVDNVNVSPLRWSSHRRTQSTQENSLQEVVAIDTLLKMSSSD
Assay: pull-down

binding result: binds
B1: Cks1-ALFA (natural protein, S. cerevisiae, UniProt P20486 1-150, looked up)
chain: MYHHYHAFQGRKLTDQERARVLEFQDSIHYSPRYSDDNYEYRHVMLPKAMLKVIPSDYFNSEVGTLRILTEDEWRGLGITQSLGWEHYECHAPEPHILLFKRPLNYEAELRAATAAAQQQQQQQQQQQQQQQQHQTQSISNDMQVPPQIS
